Measurements from paper doi:10.1101/2021.03.08.434320.

Target: H3K9me2 peptide (ITC)
Assay: ITC

**Q.** With “Arabidopsis thaliana AGDP3 AGD1-4 (1-290) (domain or fragment)” as the substance, how does the fold decrease of binding in pH 6.0 against pH 7.5 read?
**A.** 5 fold

**Q.** What about the stoichiometry N of the same substance?
**A.** 1
